In the DeepSol protein solubility set:

assay: soluble on expression in E. coli; label from the status in PepcDB or PDB records

| Sequence | soluble on expression in E. coli |
| --- | --- |
| MGSDKIHHHHHHMKILIKQDFDTMSEWAKMLLLSTMSQDKRVNLSITAGKTPALVYQKLASIVKNSSDFDNVHYYNFDEIPVPHQKEGITLTDLRTLYLTPAEISEQNIHPLTVENFQQQEQRIADAGGLDLMLIGLGADGHFCGNMPTTTHFKNETYQVTVTGSEPWFVPEMMQPGMTFVTMGPASIMKVKHLVLIVNGEQKAQMVKQVLQGPVTETYPASILQLHPNLTVLLDEAAASQLEK | not soluble |
| MGSDKIHHHHHHMKIMVSEQFQCFMASLGVDLNSLLEAAGINKVVWQEQLMLSDVEYWQLMNEFDNQLTDEMILSLGNITNINTFMPSFFAALAAKNGEQAIARMATYKSLAGPVHLEIVTKPDIVNIHILGNSLGVELPRFTIMTEQLLLISLLRVGTGKLIKPISVGSKYPYGDQIDAVMGIRPQQLADNCIQFQVTDLQRAFISANNSMWAFLQPGLDQQKLAIEHNQSLLATVQALLLKKIPSGSFSIDEIATSLNLSKRTLQRHLSTLSTTFNDEVQIARRTLVVPLMKDQSLNLIEISYLLGYSDPESFSRAFKKWFHQSPSVYRQQSLGMFKN | not soluble |
| MGSDKIHHHHHHMKIQEVKRILTRWQPSSFSLYREVFTQYGGSINMHPDIVDYFMKRYNWHFKFFHYKEDDKIKGAYFICNDQNIGILTRRTFPLSSDEILIPMAPDLRCFLPDRTNRLSALHQPQIRNAIWKLARKKQNCLVKETFSSKFEKTRRNEYQRFLKKGGSVKSVADCSSDELTHIFIELFRSRFGNTSSCYPADNLANFFSQLHHLLFGHILYIEGIPCAFDIVLKSESQMNIYFDVSNGAIKNECRPLSPGSILMWLNISRARHYCQERQKKLLFSIGILKPEWEYKRMWSTPYFTGKSIC | not soluble |
| MGSDKIHHHHHHMKISPLCPSCLLGRVYYEAKLVTDDEDLISQCVDESLKILAENYSSAPINAHLATRIHRRVYEILGVEDPYAEVKARANEVARQVLPLAKEIVEGSDDPFKTAVIVSIVGNNFDYGVQGHKVVEEEFRDFLKRKVQEGLKINDTERIKELSSGKVVYLTDNAGEIFFDTLLMKEIKRRCEKLTAVVRGRPIISDATIEDARLARVDKIADELLTNGKGAIGIIMDELPDETRKALEEADLIVAKGMANYECLSDGSLKPIAFLLTAKCEPVARDIGVNVGDMVAKVVE | not soluble |
| MGSDKIHHHHHHMKISTHELIAVVSQFNPWWRGESIQDLPTWHRAAYQELELWLIKPPVPRAIFLSGARQIGKTTLLLQAIDKLLKEGVKPGNILYVTFDHPLIKMSDIDAVLEAWREREPKTGDLEYIFIDEAQFMRSWGTWIKHQVDFSKSRRIFFTGSATPIIEADQESGVGRWHTIRLTTLSFYEYLQIKKIDLPQLPTVKTLRELFEWPQQEFYKVKELAVHYVGHFHEYLLRGGFPQTAQVENITQAQRLLREDIIDKVLKRDMTALFGVRRILELEQTFLYLCMHDGGLLDMTDLCSNLEVKRPTIQNYIFLLEATNLIYRLPPFGYGKDILRAKYKIYLADAAIAPAVLLKDKSILDDPESLGIATETAVFKHLFARYYSQNVRFSYWRGTKDHEVDVVAQIGDQIIPFEVKYRSQHTNAKALKGLLELCKKKSIAHGYVVTKSLDDFGIMKALPEIKTNIMQIPAPLLCYWMGESELRQTFGV | not soluble |
| MGSDKIHHHHHHMKITPIAFESLGVRSQATLIETKDLRVLVDPAVSLAPRRYNLPPHQREVDRLTQLAKVLVDVAKDVDVIVVSHYHYDHHDPGYVIPTDIYKNKIVFLKDPQNMINNSQKYRRAPRFLRSIKDKPRKIEIADGKTFEFNTTTISFSPAVPHGADERLGYVIQVAISDKDSTVIFTSDIEGAPKDVHLKFTKEKMPTVIIIDGPLSYLLGRALKEEELENSIRNMEEIIKNGLETVIIDHHVLRDINYAQVLKPVHDIAKDLGVRVTTAAEYLNLEPLILEARRKELYKEDNRPAKIPRGLANLLNAGDG | not soluble |
| MGSDKIHHHHHHMKIVYCIAGTYNSGGMERVLANKANYLVSHGYEVVIITTDQREKQSFFELDQRINCCDLRINYEENNGKSFLNKLANYPFKQWKHRKRLTACLKQLKADIVVSMFCNDASFLWKIDDGSKKVLEIHFSRYKRLQYGRKGVWKIADRWRSRMDERTVRKYDRFVVLTAEDKAYWGNLSNMIVIPNALSHSTTELHLSPLTARKVIAIGRYGYQKGFDYLIEAWEIIHCAQPAWTLDIIGDGEWTDRLQRQIKRKRLNHCVFLKPPTGQIEEEYRQASLLVLSSRYEGLPMVLLEAQSFGLPIVSFACKCGPGDVITDGKNGFLVSVGNLPMLADRIMRLMEDEGLRKRMGMNAYHNSKTFSEERIMQCWIDMFDKLVSQR | not soluble |
| MGSDKIHHHHHHMKKEADMIHPIANAPCSWGVDDPKNPNLPAWATVLKEAAQAGYRSIELGPWGYLPSDPASLRAALEQHQLSLVAGTIFDDLVSEAHFPTLVALTHQICRNLSQVAAAEPIPGRPFQPPYLVIIDFGNPERARFAGRGALAPRLNDKDWQRMMEHIIALSTLAWQEYGVRAVIHPHAGGSIEFADEIERLANDIPHDVAGLCLDTGHLYYAGMDPLDWLDRYYHRLDYLHFKDVDPQVYQRAIHEGIDFFTACAEGVMCPLGSGAIDYPAIKDFLARRGYQGWITIEQERDPRHAAGSLQAVTESLRYLRDVGF | not soluble |
| MGSDKIHHHHHHMKKHSPIGCISKAGLFSKLPHKMLEKIAPISTHQEYFEKGSFIRQPGDGKNGMMFVDKGSAKIYNLNRDGKETVLGVLNKGDYDGQQNLFQDDSHENFIQALQDTYICSISRADFQRLLKDTPDLTLNLLNNFGEKLVAIETNSVRRNSMNAKDRLMDYLVEQSQKNGATKFTLPLKKKDLASYLGTSPETLSRQLKSLEKEGKIKVNRREITIVKD | not soluble |
| MGSDKIHHHHHHMKKILIVTRTFGKYSQEPVEFLRKEGFEIIRSDTIDPDILKEVDALIVGTHPVTAEMVENSSLKIIAKHGVGVDNIDLEAATKKGIPVTITAGANSLSVAELTIAFIFALSRGLVWAHNKLFLERRWEGTVGQEVSGKTLGVVGFGSIGREVVKKAVCLGMNVLVYDPYVSKDSVRLLEATPVDDLEQLLKESDFVSLHVPLNESTKNMIGERELSLMKKSAFLINTSRGELVDEEALVKALKEGRIAGAALDVFSEEPPDANSPLFECPNLITTAHIGAHTKEAIFRMNMMAAQSIVDFFKGRIPRYVVNKEVIRILKEKGYQEIS | not soluble |
| MGSDKIHHHHHHMKKPFLHSESAADVGMEIQQSYDRLLETTRKWIDILHFDPLLETGLTPRDIVWRKNKSRLYRYVNHKGYKHRTPILMLYALINKAYILDLRPGMSLVEYLVDQGFDVYLLDWGEFDWEDRDLSFSQLIVDYISRAVYKVCQYSNVNELSILGYCMGGTMATMYASLYPQPRIKNMIYVAAPIDFEDAGLSSIWLKASVFDVDKVTDTFSLIPKEFVDLGLKMLNPVNNFVATYTRLWKAIDEGVSIEAWKALNKWVDDNINFPGKAYREWVKYLYQENALVKDEFIINGRKVVLSNIDAALLVLTGKTDHIVLPQQSTPILELSSSQDKTNLQYPVGHGGLVFGSRARNEVYPTIAEWLAQRS | not soluble |
| MGSDKIHHHHHHMKLADIYAHFQEDIFTIERELEEAVQARHDILRKASVHLLKAGGKRIRPVFVLLAGKFGTYDVNVLKHIAVPLELIHMASLVHDDVIDDADLRRGKKTIKSQWDNRIAMYTGDYMFAKAVQTATYFDDPNIHQIISNAINEMCLGEVEQIRDQYNPNQHLRIYFRRIKRKTALLIAVSCQLGALAAKADPAIVQKLYYFGYYVGMSFQITDDVLDFVGTEEQLGKPAGSDLLQGNVTLPALYALHHDMHAKRLIEQVLADRGNNSVHMEEVIAAIVSSGGIDYALSISDLYLKKAMRMLDHLPDDEPKQFLQEIANYIGRRKF | not soluble |
| MGSDKIHHHHHHMKLDPTSPSLNIMLANPRGFCAGVDRAISIVERALELFSPPIYVRHEVVHNRYVVQNLKDRGAVFVEELDQVPDNNIVIFSAHGVSQAVRQEAKARGLRVFDATCPLVTKVHLQVTRASRKGIECILIGHEGHPEVEGTMGQYDNPNGGVYLIESPADVDALEVRDPNNLCFVTQTTLSVDDTLDIIAALQKRFPSIEGPRKDDICYATQNRQDAVRNLSADVDLLIVVGSKNSSNSNRLRELALKTGTQSYLVDTADDVESSWFDNVSRVAVTAGASAPEVLVQQVVQAIAKLAPSVVTEVEGRKEDTVFAVPAELR | not soluble |
| MGSDKIHHHHHHMKLFRPVDGRPNSGSSCILRSYYIIMAYMSMPIASQRQEKDMTEDIRSRIGLRPVINVSGTMTSLGASIVVPEAVEAMAAILPQFVEINDLQRKASAIIARLTGGEAGFVTASCSSGISLAVAGAITGNNLLAIEKLPDIAPEKNEVLVQMGHVVSYGAPVDQAIRLGGGKVVLVGQATSTHRYHMENAITEKTAAAVYVVSHHVVDYGLLHLSEFVEIAHAKGVPVIVDAASEYDLELFLATGADVVLYSGHKFLGGPTSGIVAGSKELVRHAFLQNMGIGRGMKVGKESIYGVMAALEAWEKRDHAGIRERETGYLNLWKKTLDGRPGVTALIEPDPTNNPLDRMRVIIDADEAHITAWDLTTALARGNPPIITRDHEVEHRYFYLDPCNLHPGQETIVASRLAEELDKARASNEMIATPFEDRSRHRFDGMLCWPD | not soluble |
| MGSDKIHHHHHHMKLIWLGHGGFRLETGETTLLIDPWLTGNPMLEDSQHDAATQGATHILLTHAHFDHVADVLELAKHLSVPIVGQYDLMGYWGETEGVQTVGFNKGGTVTVGDTRVSMVPASHSNTFSTRDGLRTAGSEVGYMIRAEGKTLYVSGDTDIMADMDWMGDYYKPEIGILSAGGHFTMDMKAAAYAAQRYFAFKTVIPCHYRTFPLLEQSAQDLIDGLPGVNVIEPQIMKDIEL | not soluble |
| MGSDKIHHHHHHMKLNLRSLEAFRETMLSGSATAAAGRMGLTQPAVSRLIAQLEQEVGFELFYRERGRLSPTPEALIIYDEIDLAFGGLERVDALARDIAAFNTGLLKIVAPPSLSESVLSTILPRFMARFPKVRIAIESRSTATARAMVANRTVDCGFVKLPLDRSDISTVTLSTSETVCVLPDTHPLTAHEVLTPELLRGEPLVLLGAGTWTRRQIDDAFRERGVRPDVRVETHTVGSACALAAGGLGVAIVNALLADNFARPGVAIRVFRPQILHEYAFMTSALAPMNRLAAAFLEEAQTFFREQAR | not soluble |
| MGSDKIHHHHHHMKLPRFGVEEWLNVHEKNATYDIAGVSIAALSLEELFQLTQQDLNAFFQELGQKKMDYGWIEGSPQFKAEVCKLYKNIQAEQVLQTNGATGANMLALYALIEPEDHVISMYPTYQQLYDIPKSLGAQVDLWQIKEDSKWLPDLDELRQLIRPNTKMICINNAHNPTGAIMDEAYLKELVAIVESCGAYILSDEVYKTFASDKNIPAIVDLYDKGISVDSLSKAYSLPGIRVGWVASNKKVTAVLRDYRDYTMICAGVFDDMLASFALKHRQAIIQRNQEIVVDNLQILQDWLAKEPRAQAILPDHVSTSLIKLNVPMLIETFCLKLLSDYGVLVVPGNRFDIEGHVRLGYCGDTEILKAGLTRLSQCLRQFDEQAKIT | not soluble |
| MGSDKIHHHHHHMKLRYIFYGLTSGLLFGLSSCSLNYDPIDTYSDVTEGVTDTGTKVVFKDKAAVESHLTTIYNQMRDRQEHWYVDLLLISDSHADNAYAGTTGAEVLPFENNSIEGSNSVLERDWNRYLEDVARANKLICNIDLVTDNSLTTAERAQYKAEAMIFRAMVMFDMVRLWGDFPVITTVADDITSENIEDVYEQYFPAQNTELEAYQQIEKDLLAAIQHAPDNTAGNKTLFTKSVARTLLAKIYAEKPLRDYSKVIRYCDEVKADGFELVKDFSDLFGMNAAGTDAKARNTKESILEAQFTPGSGNWCTWMFGRDLVNWNNNFTWAKWVTPSRDLINAFKKEGDQIRFQESVVYYDCNWSNYYPSDNYPFMYKCRSANSSIIKYRYADVLLLKAEALIMQDTPDLEAAAKIIDEVRERAGLGELSSSVRKDRDAMITALLNERRLELAFEGQRWFDLVRLDKVEEVMNAVYAKDSGRKSQVYAFDKNSYRLPIPQSVIDANDKIEQNPGY | not soluble |
